Reference: article doi:10.1101/2025.05.27.656304, “Structure of the conjugation surface exclusion protein TraT” (bioRxiv, 2025)

Biological target: the molecule itself
Test: cryo-EM structure; purified TraT (12 mg/ml) in 100 mM Tris, 150 mM NaCl, 0.02% DDM, pH 8; global resolution 2.01 Å

B1: F plasmid TraT complex (Twin-Strep tagged recombinant TraT) (complex, Escherichia coli (F plasmid), UniProt P13979 22-244, looked up)
chain: CGAMSTAIKKRNLEVKTQMSETIWLEPASERTVFLQIKNTSDKDMSGLQGKIADAVKAKGYQVVTSPDKAYYWIQANVLKADKMDLRESQGWLNRGYEGAAVGAALGAGITGYNSNSAGATLGVGLAAGLVGMAADAMVEDVNYTMITDVQIAERTKATVTTDNVAALRQGTSGAKIQTSTETGNQHKYQTRVVSNANKVNLKFEEAKPVLEDQLAKSIANIL
modifications: lipid anchor on the N-terminal cysteine (density not resolved)
notes: TraT surface exclusion outer membrane lipoprotein of the E. coli F plasmid; the traT gene was cloned into a pET22b-derived vector; the protein in the structure begins at the lipidated N-terminal cysteine; Homodecamer by cryo-EM; also called TraTF; TraT-TS; copies: 10
stoichiometry N: 10
